Experimental data: paper PMC5449173

Key:
[1] = biological target: RPTPσ (transfected in 293T/17 cells for native PAGE) (not stated (human or mouse cDNA cloned)); assay: native gel or EMSA; lysates (NP-40 buffer) of RPTPσ-transfected 293T/17 cells in Coomassie blue sample buffer, native PAGE, western blot; cells untreated or treated with CSPG for 30 min
[2] = biological target: RPTPσ FC (full-length RPTPσ fused to FKBP-Cluc) (not stated (human or mouse cDNA cloned) | not stated); assay: split reporter (BiFC, NanoBiT); split firefly luciferase; 293T/17 cells co-transfected with RPTPσ FN/FC, 48 h, rapamycin for 4 hr against DMSO control

Substance	stoichiometry N [1]	fold increase of bioluminescence with rapamycin against control cells [2] [fold]
RPTPσ (transfected in 293T/17 cells for native PAGE) (receptor)	2	–
RPTPσ FN (full-length RPTPσ fused to FRB-Nluc)	–	3
